Test results: the supplement of paper PMC7877785
± gives the uncertainty stated by the source.

Experiment: self-splicing fitness, log relative to wild type (ln ratio); higher = more splicing; Tetrahymena group I intron in knt gene, E. coli kanamycin selection, DiMSum; sequences stand for … in CUCUCU…GGAGGGAAAAGUUAUCAGGCAUGCACCUGGUAGCUAGUCUUUAAACCAAUAGAUUGCAUCGGUUUAAAAGGCAAGACCGUCAAAUUGCGGGAAAGGGGUCAACAGCCGUUCAGUACCAAGUCUCAGGGGAAACUUUGAGAUGGCCUUGCAAAGGGUAUGGUAAUAAGCUGACGGACAUGGUCCUAACCACGCAGCCAAGUCCUAAGUCAACAGAUCUUCUGUUGAUAUGGAUGCAGUUCACAGACUAAAUGUCGGUCGGGGAAGAUGUAUUCUUCUCAUAAGAUAUAGUCGGACCUCUCCUUAAUGGGAGCUAGCGGAUGAAGUGAUGCAACACUGGAGCCGCUGGGAACUAAUUUGUAUGCGAAAGUAUAUUGAUUAGUUUUGGAGUACUCGUGGUCG
Procedure, shortened: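 Pooled colonies went to amplicon sequencing on an Illumina HiSeq 2500 after six replicate transformations. The plates were LB agar with 100 μg/mL carbenicillin, 50 μM IPTG and 0.2% rhamnose, with or without 25 μg/mL kanamycin, incubated overnight at 37°C or 30°C. The E. coli BL21(DE3) library had all eight P1ex-region intron nucleotides randomised, the intron placed in the knt kanamycin-resistance gene on pET-22b(+). DiMSum fitness is the error-weighted combination of replicate fold changes, kanamycin against none, normalised to wild type.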

Sequence | self-splicing fitness (ln) (30 °C) | self-splicing fitness (ln) (37 °C)
AGGCAGCAAUAUUACGUUUG | -3.43 ± 0.18 | -1.66 ± 0.14
AGGGAGCAAUAUUACGACGC | – | -1.54 ± 0.45
AGGGAGCAAUAUUACGAGGA | -3.08 ± 0.33 | –
AGGGAGCAAUAUUACGAGUG | -3.39 ± 0.36 | -2.37 ± 0.3
AGGGAGCAAUAUUACGAUAG | -2.56 ± 0.23 | -2.66 ± 0.3
AGGGAGCAAUAUUACGAUCU | -2.71 ± 0.23 | -1.77 ± 0.17
AGGGAGCAAUAUUACGCCCA | – | -0.897 ± 0.34
AGGGAGCAAUAUUACGCUAU | -3.63 ± 0.43 | -1.85 ± 0.49
AGGGAGCAAUAUUACGGAUG | -4 ± 0.33 | -2.6 ± 0.31
AGGGAGCAAUAUUACGGGAU | -3.19 ± 0.46 | -1.48 ± 0.28
AGGGAGCAAUAUUACGGGGC | – | -0.893 ± 0.36
AGGGAGCAAUAUUACGGGUU | -3.84 ± 0.25 | -3.17 ± 0.35
AGGGAGCAAUAUUACGGUAG | -4 ± 0.33 | –
AGGGAGCAAUAUUACGGUUU | -3.83 ± 0.24 | -2.39 ± 0.26
AGGGAGCAAUAUUACGUAGA | -3.05 ± 0.19 | -2.22 ± 0.48
AGGGAGCAAUAUUACGUGCA | -4.52 ± 0.34 | -2.5 ± 0.24
AGGGAGCAAUAUUACGUGCC | -2.79 ± 0.46 | –
AGGGAGCAAUAUUACGUGGA | -1.45 ± 0.14 | -2.81 ± 0.26
AGGUAGCAAUAUUACGAACA | -0.682 ± 0.019 | -0.342 ± 0.036
AGGUAGCAAUAUUACGAACG | -0.798 ± 0.016 | -0.207 ± 0.035
AGGUAGCAAUAUUACGACGC | -0.0643 ± 0.017 | 0.0178 ± 0.035
AGGUAGCAAUAUUACGACGG | -2.04 ± 0.02 | -1.31 ± 0.037
AGGUAGCAAUAUUACGAGGG | -3.972 ± 0.031 | -3.2 ± 0.042
AGGUAGCAAUAUUACGAUCA | -0.205 ± 0.014 | -0.121 ± 0.033
AGGUAGCAAUAUUACGCACU | -1.32 ± 0.017 | -0.862 ± 0.035
AGGUAGCAAUAUUACGCAGG | -3.433 ± 0.022 | -1.88 ± 0.035

Sequence | self-splicing fitness (ln) (30 °C) | self-splicing fitness (ln) (37 °C)
AGGUAGCAAUAUUACGCCAU | -1.89 ± 0.021 | -0.939 ± 0.036
AGGUAGCAAUAUUACGGAAG | -3.612 ± 0.031 | -2.5 ± 0.04
AGGUAGCAAUAUUACGGCUA | -1.66 ± 0.022 | -1.14 ± 0.037
AGGUAGCAAUAUUACGGUCU | -0.498 ± 0.013 | -0.107 ± 0.033
AGGUAGCAAUAUUACGUAUA | -2.6 ± 0.023 | -1.45 ± 0.036
AGGUAGCAAUAUUACGUCAA | -2.28 ± 0.023 | -1.6 ± 0.036
AGGUAGCAAUAUUACGUUUC | -3.528 ± 0.026 | -2.18 ± 0.039
AGUAAGCAAUAUUACGAACU | -2.43 ± 0.19 | -0.813 ± 0.15
AGUAAGCAAUAUUACGAAGC | -3.12 ± 0.27 | -3.5 ± 0.37
AGUAAGCAAUAUUACGAAUG | -1.15 ± 0.28 | –
AGUAAGCAAUAUUACGAGUU | -2.53 ± 0.097 | -0.877 ± 0.1
AGUAAGCAAUAUUACGCCCC | 0.393 ± 0.41 | -1.15 ± 0.36
AGUAAGCAAUAUUACGCGAA | -2.57 ± 0.12 | -1.42 ± 0.19
AGUAAGCAAUAUUACGCGCG | -1.05 ± 0.21 | -0.403 ± 0.21
AGUAAGCAAUAUUACGCGGA | -3.49 ± 0.32 | -0.326 ± 0.11
AGUAAGCAAUAUUACGCUCC | -3.21 ± 0.28 | -1.18 ± 0.2
AGUAAGCAAUAUUACGGAGU | -2.22 ± 0.18 | -2.37 ± 0.39
AGUAAGCAAUAUUACGGCAA | -0.915 ± 0.11 | -0.179 ± 0.096
AGUAAGCAAUAUUACGGCGG | -2.43 ± 0.16 | -1.66 ± 0.19
AGUAAGCAAUAUUACGGCUG | -0.953 ± 0.11 | -0.941 ± 0.12
AGUAAGCAAUAUUACGGGCG | -0.68 ± 0.08 | 0.152 ± 0.12
AGUAAGCAAUAUUACGUAGA | -3.23 ± 0.19 | -1.78 ± 0.16
AGUAAGCAAUAUUACGUAGU | -3.22 ± 0.14 | -2.53 ± 0.16
AGUAAGCAAUAUUACGUCUA | -0.96 ± 0.16 | -0.0188 ± 0.15
AGUAAGCAAUAUUACGUGGC | -2.68 ± 0.16 | -2.54 ± 0.22
AGUAAGCAAUAUUACGUGUU | -3.49 ± 0.13 | -1.99 ± 0.18

Sequence | self-splicing fitness (ln) (30 °C) | self-splicing fitness (ln) (37 °C)
AGUAAGCAAUAUUACGUUAU | -3.25 ± 0.23 | -2.18 ± 0.18
AGUCAGCAAUAUUACGACCA | -0.2 ± 0.12 | 0.345 ± 0.14
AGUCAGCAAUAUUACGACGG | -0.725 ± 0.067 | -0.096 ± 0.1
AGUCAGCAAUAUUACGACGU | 0.702 ± 0.092 | -0.164 ± 0.096
AGUCAGCAAUAUUACGAGUG | -2.14 ± 0.079 | -0.966 ± 0.095
AGUCAGCAAUAUUACGAUGA | -0.22 ± 0.057 | -0.0826 ± 0.071
AGUCAGCAAUAUUACGCAGG | -2.85 ± 0.26 | -2.92 ± 0.43
AGUCAGCAAUAUUACGCAUG | -2.04 ± 0.14 | -1.12 ± 0.13
AGUCAGCAAUAUUACGCCAA | -2.75 ± 0.34 | -0.963 ± 0.2
AGUCAGCAAUAUUACGCGCA | -0.326 ± 0.11 | 0.452 ± 0.17
AGUCAGCAAUAUUACGCGCG | 0.157 ± 0.12 | -0.374 ± 0.13
AGUCAGCAAUAUUACGCUCG | -0.828 ± 0.075 | -0.495 ± 0.098
AGUCAGCAAUAUUACGGAGG | -2.93 ± 0.13 | -1.31 ± 0.15
AGUCAGCAAUAUUACGGCAC | -0.122 ± 0.093 | -0.255 ± 0.14
AGUCAGCAAUAUUACGGCGC | -0.611 ± 0.13 | -0.0744 ± 0.18
AGUCAGCAAUAUUACGGCUG | -0.616 ± 0.12 | -1.96 ± 0.22
AGUCAGCAAUAUUACGGGGC | – | -2.31 ± 0.45
AGUCAGCAAUAUUACGUAAA | -1.71 ± 0.12 | -0.231 ± 0.11
AGUCAGCAAUAUUACGUGUU | -0.875 ± 0.061 | -0.392 ± 0.096
AGUCAGCAAUAUUACGUUUC | -3.63 ± 0.15 | -1.34 ± 0.11
AGUGAGCAAUAUUACGACAU | -1.07 ± 0.014 | -0.531 ± 0.034
AGUGAGCAAUAUUACGACCG | – | -0.72 ± 0.27
AGUGAGCAAUAUUACGACUU | -1.18 ± 0.17 | -0.93 ± 0.19
AGUGAGCAAUAUUACGAUAA | -4.08 ± 0.33 | -2.16 ± 0.25
AGUGAGCAAUAUUACGAUCG | -0.663 ± 0.23 | -0.975 ± 0.24
AGUGAGCAAUAUUACGCAUU | -2.55 ± 0.21 | -1.4 ± 0.19
